This note sets out measurements from the supplement of paper PMC9112550, “Optimization of the antimicrobial peptide Bac7 by deep mutational scanning” (BMC Biology, 2022).

This data set deals with Escherichia coli TOP10. The experiment in a line: shrunken log2 fold change of peptide-encoding DNA abundance (4.5 h post-induction vs induction); higher = less antimicrobial activity (less host growth inhibition). As to conditions: time post-induction: 4.5 h; library: site-saturation at positions 5, 18, 19, 20.
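Further: peptides expressed intracellularly from a pBAD plasmid library in pooled LB shake-flask culture, induced with 0.3% L-arabinose, DNA abundance read by NGS, three biological replicates, DESeq2 with apeglm shrinkage.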

Turning to RRIRWRPPRLPRPRPRPLFDPRP, the “shrunken log2 fold change” value turned out to be 0.0264.
For RRIRLRPPRLPRPRPRPDRWPRP the value was -0.0824; for RRIRCRPPRLPRPRPRPFPEPRP, -0.312.
Then RRIRNRPPRLPRPRPRPQSSPRP, with -0.0447.
Then RRIRYRPPRLPRPRPRPRAFPRP, with -0.677.
With RRIRSRPPRLPRPRPRPRVLPRP, the “shrunken log2 fold change” value was -0.285.
Then RRIRKRPPRLPRPRPRPPQYPRP, with 0.277; and RRIRGRPPRLPRPRPRPQCNPRP, with 0.203; and RRIRFRPPRLPRPRPRPDKFPRP, with -0.0567.
As to RRIRLRPPRLPRPRPRPAEAPRP, the “shrunken log2 fold change” value was found to be 0.0653.
In the case of RRIRWRPPRLPRPRPRPMIMPRP, the “shrunken log2 fold change” value was -0.0612.
On to RRIRSRPPRLPRPRPRPIHEPRP, for which the “shrunken log2 fold change” value was -0.00691.
Then RRIRSRPPRLPRPRPRPKKQPRP, with 0.0417; and RRIRKRPPRLPRPRPRPRWRPRP, with 0.658; and RRIRNRPPRLPRPRPRPHFKPRP, with -0.52.
Then RRIRCRPPRLPRPRPRPDLDPRP, with 0.0676; and RRIRMRPPRLPRPRPRPLKPPRP, with 0.528.
For RRIRMRPPRLPRPRPRPQKMPRP the value was 0.0453; for RRIRMRPPRLPRPRPRPITDPRP, -0.667; for RRIRVRPPRLPRPRPRPVYNPRP, -0.738.
Turning to RRIRQRPPRLPRPRPRPWSRPRP, the “shrunken log2 fold change” value came to 0.00812.
On to RRIRARPPRLPRPRPRPLMRPRP, for which the “shrunken log2 fold change” value was 1.45.
RRIRLRPPRLPRPRPRPPTIPRP: the “shrunken log2 fold change” value was 0.168.
For RRIRNRPPRLPRPRPRPEQPPRP the value was 0.0618.
For the sequence RRIRERPPRLPRPRPRPLAAPRP, the “shrunken log2 fold change” value is -0.0502.
With RRIRCRPPRLPRPRPRPIYRPRP, the “shrunken log2 fold change” value is -0.318.
On to RRIRERPPRLPRPRPRPLCDPRP, for which the “shrunken log2 fold change” value stood at 1.81.
Then RRIRTRPPRLPRPRPRPISHPRP, with -0.328; and RRIRVRPPRLPRPRPRPMVIPRP, with 0.0224; and RRIRRRPPRLPRPRPRPDIFPRP, with 0.0756.
For RRIRCRPPRLPRPRPRPQIPPRP the value was -0.126; for RRIRSRPPRLPRPRPRPTDFPRP, -0.541; for RRIRKRPPRLPRPRPRPVYNPRP, -0.0144.
Then RRIRQRPPRLPRPRPRPKIEPRP, with -0.32; and RRIRWRPPRLPRPRPRPWICPRP, with -0.137.
As to RRIRFRPPRLPRPRPRPVMEPRP, the “shrunken log2 fold change” value is 0.352.
Then RRIRVRPPRLPRPRPRPVLFPRP, with 0.00022; and RRIRWRPPRLPRPRPRPEMSPRP, with -0.0114.
Consider RRIRVRPPRLPRPRPRPIQEPRP, for which the “shrunken log2 fold change” value is -0.169.
For the sequence RRIRKRPPRLPRPRPRPHEKPRP, the “shrunken log2 fold change” value was found to be 1.1.
For RRIRFRPPRLPRPRPRPHKMPRP the value was -0.154; for RRIRFRPPRLPRPRPRPCSIPRP, 0.0647.
For RRIRFRPPRLPRPRPRPLPMPRP the value was 0.142; for RRIRARPPRLPRPRPRPQRMPRP, 0.0748.
For RRIRARPPRLPRPRPRPQVYPRP, the “shrunken log2 fold change” value is -0.174.
Then RRIRNRPPRLPRPRPRPTAKPRP, with -0.136; and RRIRNRPPRLPRPRPRPKYLPRP, with -0.0259; and RRIRNRPPRLPRPRPRPGTIPRP, with -0.316.
Take RRIRWRPPRLPRPRPRPYQCPRP: the “shrunken log2 fold change” value was -0.325.
As to RRIRYRPPRLPRPRPRPWFEPRP, the “shrunken log2 fold change” value is -0.2.
For RRIRRRPPRLPRPRPRPQNKPRP the value was -0.172.
For RRIRPRPPRLPRPRPRPWDQPRP the value was -0.0786; for RRIRVRPPRLPRPRPRPYVWPRP, -0.567; for RRIRKRPPRLPRPRPRPILKPRP, 0.117.
In the case of RRIRERPPRLPRPRPRPWAPPRP, the “shrunken log2 fold change” value is -0.0362.
As to RRIRGRPPRLPRPRPRPSKGPRP, the “shrunken log2 fold change” value is -0.403.
RRIRFRPPRLPRPRPRPWNSPRP: the “shrunken log2 fold change” value is -0.976.
For RRIRTRPPRLPRPRPRPLQSPRP the value was -0.00232; for RRIRRRPPRLPRPRPRPRMFPRP, 0.556.
For RRIRPRPPRLPRPRPRPNRWPRP the value was 0.106; for RRIRYRPPRLPRPRPRPPFVPRP, -0.304; for RRIRNRPPRLPRPRPRPNELPRP, 0.106.
Then RRIRWRPPRLPRPRPRPANHPRP, with -0.262; and RRIRERPPRLPRPRPRPPVPPRP, with 0.45.
As for RRIRFRPPRLPRPRPRPRIQPRP, the “shrunken log2 fold change” value was determined as 0.018.
Then RRIRPRPPRLPRPRPRPPFCPRP, with 0.317.
Then RRIRVRPPRLPRPRPRPECMPRP, with 0.283.
Consider RRIRQRPPRLPRPRPRPKRMPRP, for which the “shrunken log2 fold change” value was -0.0373.
For RRIRDRPPRLPRPRPRPAWPPRP the value was 0.815.
RRIRDRPPRLPRPRPRPWPDPRP: the “shrunken log2 fold change” value turned out to be 0.129.
Consider RRIRKRPPRLPRPRPRPNIYPRP, for which the “shrunken log2 fold change” value was -0.275.
With RRIRERPPRLPRPRPRPMYRPRP, the “shrunken log2 fold change” value is -0.273.
Regarding RRIRPRPPRLPRPRPRPIEEPRP, the “shrunken log2 fold change” value was -0.0376.
Then RRIRKRPPRLPRPRPRPMVNPRP, with 1.55.
Turning to RRIRCRPPRLPRPRPRPGNCPRP, the “shrunken log2 fold change” value is -0.0286.
Take RRIRLRPPRLPRPRPRPAHLPRP: the “shrunken log2 fold change” value turned out to be 0.343.
Then RRIRQRPPRLPRPRPRPRMFPRP, with 0.0604.
Turning to RRIRNRPPRLPRPRPRPLTYPRP, the “shrunken log2 fold change” value was -0.979.
With RRIRCRPPRLPRPRPRPLQEPRP, the “shrunken log2 fold change” value amounted to 0.299.
With RRIRIRPPRLPRPRPRPDCWPRP, the “shrunken log2 fold change” value came to 0.103.
As for RRIRMRPPRLPRPRPRPKQWPRP, the “shrunken log2 fold change” value was 0.895.
RRIRRRPPRLPRPRPRPESFPRP: the “shrunken log2 fold change” value amounted to 0.0965.
For RRIRNRPPRLPRPRPRPRANPRP the value was 0.0572; for RRIRWRPPRLPRPRPRPITHPRP, -0.126; for RRIRVRPPRLPRPRPRPYNHPRP, -0.343.
As to RRIRNRPPRLPRPRPRPHHLPRP, the “shrunken log2 fold change” value was -0.427.
For RRIRQRPPRLPRPRPRPGHGPRP the value was -0.124; for RRIRQRPPRLPRPRPRPPGCPRP, 0.342.
With RRIRCRPPRLPRPRPRPCVSPRP, the “shrunken log2 fold change” value was -0.0805.
Then RRIRNRPPRLPRPRPRPVMYPRP, with -0.128; and RRIRCRPPRLPRPRPRPPVQPRP, with 0.652; and RRIRTRPPRLPRPRPRPGYQPRP, with -0.0553.
Then RRIRARPPRLPRPRPRPNRVPRP, with 0.0397; and RRIRHRPPRLPRPRPRPSSNPRP, with -0.399; and RRIRARPPRLPRPRPRPGMFPRP, with 0.295.
For RRIRWRPPRLPRPRPRPSPCPRP the value was -0.214; for RRIRFRPPRLPRPRPRPSFDPRP, -0.62; for RRIRDRPPRLPRPRPRPEDSPRP, 0.882.
RRIRWRPPRLPRPRPRPHDTPRP: the “shrunken log2 fold change” value was determined as 0.0511.
Then RRIRRRPPRLPRPRPRPSHNPRP, with -0.379.
Then RRIRNRPPRLPRPRPRPWVAPRP, with -0.0268.
For RRIRQRPPRLPRPRPRPIEAPRP the value was -0.00454; for RRIRGRPPRLPRPRPRPPWCPRP, 0.491.
With RRIRSRPPRLPRPRPRPCPGPRP, the “shrunken log2 fold change” value was -0.234.
Then RRIRCRPPRLPRPRPRPDYPPRP, with -0.221; and RRIRKRPPRLPRPRPRPQRTPRP, with 0.419; and RRIRSRPPRLPRPRPRPFHCPRP, with -0.0582.
For RRIRPRPPRLPRPRPRPNIDPRP the value was -0.468; for RRIRARPPRLPRPRPRPSYCPRP, -0.311; for RRIRFRPPRLPRPRPRPHREPRP, -0.0534.
For RRIRARPPRLPRPRPRPYHQPRP, the “shrunken log2 fold change” value is -0.885.
Turning to RRIRQRPPRLPRPRPRPVDDPRP, the “shrunken log2 fold change” value is -0.0578.
As for RRIRKRPPRLPRPRPRPPIAPRP, the “shrunken log2 fold change” value worked out at 0.464.
Then RRIRYRPPRLPRPRPRPKLHPRP, with -0.431; and RRIRMRPPRLPRPRPRPYPTPRP, with -0.114; and RRIRIRPPRLPRPRPRPHYTPRP, with -0.591.
RRIRLRPPRLPRPRPRPLACPRP: the “shrunken log2 fold change” value was -0.454.
Regarding RRIRKRPPRLPRPRPRPAYLPRP, the “shrunken log2 fold change” value was 0.105.
Consider RRIRIRPPRLPRPRPRPDLSPRP, for which the “shrunken log2 fold change” value is -0.000521.
Then RRIRTRPPRLPRPRPRPGDRPRP, with 0.0976.
For RRIRYRPPRLPRPRPRPNFTPRP the value was -0.348; for RRIRARPPRLPRPRPRPRSYPRP, 0.242.
For the sequence RRIRRRPPRLPRPRPRPTLWPRP, the “shrunken log2 fold change” value amounted to 0.563.
For RRIRERPPRLPRPRPRPWGPPRP the value was -0.0024; for RRIRNRPPRLPRPRPRPKTVPRP, 0.0807.
